Assays:
[1] = molecular target: Human statherin protein (human) (UniProt P02808); assay: indirect ELISA; coat: sample 3, 12.5 uL saliva/100 uL in urine, diluted 1:40; mean of triplicate
[2] = molecular target: Human statherin protein (human) (UniProt P02808); assay: indirect ELISA; coat: B-SB-U (buccal swab stirred in 30 mL urine, individual B) diluted 1:40; mean of triplicate
[3] = molecular target: Human statherin protein (human) (UniProt P02808); assay: indirect ELISA; coat: A-Saliva (pure saliva of individual A) diluted 1:40; mean of triplicate
[4] = molecular target: Human statherin protein (human) (UniProt P02808); assay: indirect ELISA; coat: sample 5, 3.125 uL saliva/100 uL in urine, diluted 1:40; replicate R3
[5] = molecular target: Human statherin protein (human) (UniProt P02808); assay: indirect ELISA; coat: A-SP-U (about 500 uL spit in 30 mL urine, individual A) diluted 1:40; replicate R1
[6] = molecular target: Human statherin protein (human) (UniProt P02808); assay: indirect ELISA; coat: B-SP-U (about 500 uL spit in 30 mL urine, individual B) diluted 1:40; replicate R2
[7] = molecular target: Human statherin protein (human) (UniProt P02808); assay: indirect ELISA; coat: sample 2, 25 uL saliva/100 uL in urine, diluted 1:40; replicate R2
[8] = molecular target: Human statherin protein (human) (UniProt P02808); assay: indirect ELISA; coat: B-SB-U (buccal swab stirred in 30 mL urine, individual B) diluted 1:40; replicate R3
[9] = molecular target: Human statherin protein (human) (UniProt P02808); assay: indirect ELISA; coat: B-SP-U (about 500 uL spit in 30 mL urine, individual B) diluted 1:40; replicate R3
[10] = molecular target: Human statherin protein (human) (UniProt P02808); assay: indirect ELISA; coat: A-SB-U (buccal swab stirred in 30 mL urine, individual A) diluted 1:40; replicate R2
[11] = molecular target: Human statherin protein (human) (UniProt P02808); assay: indirect ELISA; coat: sample 5, 3.125 uL saliva/100 uL in urine, diluted 1:40; mean of triplicate
[12] = molecular target: Human statherin protein (human) (UniProt P02808); assay: indirect ELISA; coat: sample 3, 12.5 uL saliva/100 uL in urine, diluted 1:40; replicate R3
[13] = molecular target: Human statherin protein (human) (UniProt P02808); assay: indirect ELISA; coat: A-SB-U (buccal swab stirred in 30 mL urine, individual A) diluted 1:40; mean of triplicate
[14] = molecular target: Human statherin protein (human) (UniProt P02808); assay: indirect ELISA; coat: A-SP-U (about 500 uL spit in 30 mL urine, individual A) diluted 1:40; mean of triplicate
[15] = molecular target: Human statherin protein (human) (UniProt P02808); assay: indirect ELISA; coat: sample 2, 25 uL saliva/100 uL in urine, diluted 1:40; mean of triplicate
[16] = molecular target: Human statherin protein (human) (UniProt P02808); assay: indirect ELISA; coat: B-Saliva (pure saliva of individual B) diluted 1:40; mean of triplicate
[17] = molecular target: Human statherin protein (human) (UniProt P02808); assay: indirect ELISA; coat: sample 5, 3.125 uL saliva/100 uL in urine, diluted 1:40; replicate R2
[18] = molecular target: Human statherin protein (human) (UniProt P02808); assay: indirect ELISA; coat: B-Saliva (pure saliva of individual B) diluted 1:40; replicate R2
[19] = molecular target: Human statherin protein (human) (UniProt P02808); assay: indirect ELISA; coat: sample 4, 6.25 uL saliva/100 uL in urine, diluted 1:40; replicate R3
[20] = molecular target: Human statherin protein (human) (UniProt P02808); assay: indirect ELISA; coat: sample 4, 6.25 uL saliva/100 uL in urine, diluted 1:40; replicate R2
[21] = molecular target: Human statherin protein (human) (UniProt P02808); assay: indirect ELISA; coat: sample 4, 6.25 uL saliva/100 uL in urine, diluted 1:40; replicate R1
[22] = molecular target: Human statherin protein (human) (UniProt P02808); assay: indirect ELISA; coat: sample 6, 1.5625 uL saliva/100 uL in urine, diluted 1:40; replicate R2
[23] = molecular target: Human statherin protein (human) (UniProt P02808); assay: indirect ELISA; coat: A-Saliva (pure saliva of individual A) diluted 1:40; replicate R1
[24] = molecular target: Human statherin protein (human) (UniProt P02808); assay: indirect ELISA; coat: sample 2, 25 uL saliva/100 uL in urine, diluted 1:40; mean minus saliva-free urine blank
[25] = molecular target: Human statherin protein (human) (UniProt P02808); assay: indirect ELISA; coat: sample 6, 1.5625 uL saliva/100 uL in urine, diluted 1:40; mean minus saliva-free urine blank
[26] = molecular target: Human statherin protein (human) (UniProt P02808); assay: indirect ELISA; coat: sample 4, 6.25 uL saliva/100 uL in urine, diluted 1:40; mean minus saliva-free urine blank
[27] = molecular target: Human statherin protein (human) (UniProt P02808); assay: indirect ELISA; coat: A-Saliva (pure saliva of individual A) diluted 1:40; replicate R2
[28] = molecular target: Human statherin protein (human) (UniProt P02808); assay: indirect ELISA; coat: B-SP-U (about 500 uL spit in 30 mL urine, individual B) diluted 1:40; mean of triplicate
[29] = molecular target: Human statherin protein (human) (UniProt P02808); assay: indirect ELISA; coat: sample 7, 0.78125 uL saliva/100 uL in urine, diluted 1:40; replicate R3
[30] = molecular target: Human statherin protein (human) (UniProt P02808); assay: indirect ELISA; coat: sample 1, 50 uL saliva/100 uL in urine, diluted 1:40; mean minus saliva-free urine blank
[31] = molecular target: Human statherin protein (human) (UniProt P02808); assay: indirect ELISA; coat: sample 1, 50 uL saliva/100 uL in urine, diluted 1:40; replicate R1
[32] = molecular target: Human statherin protein (human) (UniProt P02808); assay: indirect ELISA; coat: sample 3, 12.5 uL saliva/100 uL in urine, diluted 1:40; replicate R2
[33] = molecular target: Human statherin protein (human) (UniProt P02808); assay: indirect ELISA; coat: sample 7, 0.78125 uL saliva/100 uL in urine, diluted 1:40; replicate R1
[34] = molecular target: Human statherin protein (human) (UniProt P02808); assay: indirect ELISA; coat: B-SB-U (buccal swab stirred in 30 mL urine, individual B) diluted 1:40; replicate R2
[35] = molecular target: Human statherin protein (human) (UniProt P02808); assay: indirect ELISA; coat: B-Saliva (pure saliva of individual B) diluted 1:40; replicate R3
[36] = molecular target: Human statherin protein (human) (UniProt P02808); assay: indirect ELISA; coat: sample 1, 50 uL saliva/100 uL in urine, diluted 1:40; replicate R3
[37] = molecular target: Human statherin protein (human) (UniProt P02808); assay: indirect ELISA; coat: sample 2, 25 uL saliva/100 uL in urine, diluted 1:40; replicate R1
[38] = molecular target: Human statherin protein (human) (UniProt P02808); assay: indirect ELISA; coat: sample 1, 50 uL saliva/100 uL in urine, diluted 1:40; replicate R2
[39] = molecular target: Human statherin protein (human) (UniProt P02808); assay: indirect ELISA; coat: sample 3, 12.5 uL saliva/100 uL in urine, diluted 1:40; mean minus saliva-free urine blank
[40] = molecular target: Human statherin protein (human) (UniProt P02808); assay: indirect ELISA; coat: A-SB-U (buccal swab stirred in 30 mL urine, individual A) diluted 1:40; replicate R3
[41] = molecular target: Human statherin protein (human) (UniProt P02808); assay: indirect ELISA; coat: B-Saliva (pure saliva of individual B) diluted 1:40; replicate R1
[42] = molecular target: Human statherin protein (human) (UniProt P02808); assay: indirect ELISA; coat: A-Saliva (pure saliva of individual A) diluted 1:40; replicate R3
[43] = molecular target: Human statherin protein (human) (UniProt P02808); assay: indirect ELISA; coat: sample 5, 3.125 uL saliva/100 uL in urine, diluted 1:40; mean minus saliva-free urine blank
[44] = molecular target: Human statherin protein (human) (UniProt P02808); assay: indirect ELISA; coat: sample 7, 0.78125 uL saliva/100 uL in urine, diluted 1:40; replicate R2
[45] = molecular target: Human statherin protein (human) (UniProt P02808); assay: indirect ELISA; coat: sample 5, 3.125 uL saliva/100 uL in urine, diluted 1:40; replicate R1
[46] = molecular target: Human statherin protein (human) (UniProt P02808); assay: indirect ELISA; coat: sample 6, 1.5625 uL saliva/100 uL in urine, diluted 1:40; replicate R1
[47] = molecular target: Human statherin protein (human) (UniProt P02808); assay: indirect ELISA; coat: sample 7, 0.78125 uL saliva/100 uL in urine, diluted 1:40; mean minus saliva-free urine blank
[48] = molecular target: Human statherin protein (human) (UniProt P02808); assay: indirect ELISA; coat: sample 1, 50 uL saliva/100 uL in urine, diluted 1:40; mean of triplicate
[49] = molecular target: Human statherin protein (human) (UniProt P02808); assay: indirect ELISA; coat: A-SP-U (about 500 uL spit in 30 mL urine, individual A) diluted 1:40; replicate R2
[50] = molecular target: Human statherin protein (human) (UniProt P02808); assay: indirect ELISA; coat: B-SB-U (buccal swab stirred in 30 mL urine, individual B) diluted 1:40; replicate R1
[51] = molecular target: Human statherin protein (human) (UniProt P02808); assay: indirect ELISA; coat: B-SP-U (about 500 uL spit in 30 mL urine, individual B) diluted 1:40; replicate R1
[52] = molecular target: Human statherin protein (human) (UniProt P02808); assay: indirect ELISA; coat: sample 3, 12.5 uL saliva/100 uL in urine, diluted 1:40; replicate R1
[53] = molecular target: Human statherin protein (human) (UniProt P02808); assay: indirect ELISA; coat: sample 6, 1.5625 uL saliva/100 uL in urine, diluted 1:40; replicate R3
[54] = molecular target: Human statherin protein (human) (UniProt P02808); assay: indirect ELISA; coat: sample 2, 25 uL saliva/100 uL in urine, diluted 1:40; replicate R3
[55] = molecular target: Human statherin protein (human) (UniProt P02808); assay: indirect ELISA; coat: sample 7, 0.78125 uL saliva/100 uL in urine, diluted 1:40; mean of triplicate
[56] = molecular target: Human statherin protein (human) (UniProt P02808); assay: indirect ELISA; coat: sample 6, 1.5625 uL saliva/100 uL in urine, diluted 1:40; mean of triplicate
[57] = molecular target: Human statherin protein (human) (UniProt P02808); assay: indirect ELISA; coat: A-SB-U (buccal swab stirred in 30 mL urine, individual A) diluted 1:40; replicate R1
[58] = molecular target: Human statherin protein (human) (UniProt P02808); assay: indirect ELISA; coat: sample 4, 6.25 uL saliva/100 uL in urine, diluted 1:40; mean of triplicate
[59] = molecular target: Human statherin protein (human) (UniProt P02808); assay: indirect ELISA; coat: A-SP-U (about 500 uL spit in 30 mL urine, individual A) diluted 1:40; replicate R3

Chain of UniProt P02808 (P02808 20-62 limits assumed): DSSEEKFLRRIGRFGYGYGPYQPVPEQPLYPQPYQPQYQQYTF

OD405 Mean [1]: 0.137 OD405
OD405 Mean [2]: 0.306 OD405
OD405 Mean [3]: 1.22 OD405
OD405 [4]: 0.114 OD405
OD405 [5]: 0.207 OD405
OD405 [6]: 0.168 OD405
OD405 [7]: 0.114 OD405
OD405 [8]: 0.289 OD405
OD405 [9]: 0.165 OD405
OD405 [10]: 0.287 OD405
OD405 Mean [11]: 0.121 OD405
OD405 [12]: 0.12 OD405
OD405 Mean [13]: 0.303 OD405
OD405 Mean [14]: 0.224 OD405
OD405 Mean [15]: 0.125 OD405
OD405 Mean [16]: 0.336 OD405
OD405 [17]: 0.117 OD405
OD405 [18]: 0.289 OD405
OD405 [19]: 0.131 OD405
OD405 [20]: 0.14 OD405
OD405 [21]: 0.16 OD405
OD405 [22]: 0.083 OD405
OD405 [23]: 1.21 OD405
OD405 Mean - Blank mean [24]: 0.095 OD405
OD405 Mean - Blank mean [25]: 0.053 OD405
OD405 Mean - Blank mean [26]: 0.114 OD405
OD405 [27]: 1.22 OD405
OD405 Mean [28]: 0.168 OD405
OD405 [29]: 0.057 OD405
OD405 Mean - Blank mean [30]: 0.125 OD405
OD405 [31]: 0.171 OD405
OD405 [32]: 0.129 OD405
OD405 [33]: 0.069 OD405
OD405 [34]: 0.311 OD405
OD405 [35]: 0.394 OD405
OD405 [36]: 0.144 OD405
OD405 [37]: 0.147 OD405
OD405 [38]: 0.151 OD405
OD405 Mean - Blank mean [39]: 0.107 OD405
OD405 [40]: 0.291 OD405
OD405 [41]: 0.325 OD405
OD405 [42]: 1.24 OD405
OD405 Mean - Blank mean [43]: 0.091 OD405
OD405 [44]: 0.06 OD405
OD405 [45]: 0.132 OD405
OD405 [46]: 0.091 OD405
OD405 Mean - Blank mean [47]: 0.032 OD405
OD405 Mean [48]: 0.155 OD405
OD405 [49]: 0.229 OD405
OD405 [50]: 0.318 OD405
OD405 [51]: 0.171 OD405
OD405 [52]: 0.161 OD405
OD405 [53]: 0.075 OD405
OD405 [54]: 0.114 OD405
OD405 Mean [55]: 0.062 OD405
OD405 Mean [56]: 0.083 OD405
OD405 [57]: 0.331 OD405
OD405 Mean [58]: 0.144 OD405
OD405 [59]: 0.236 OD405
Substance: Statherin Antibody (N-16), Santa Cruz Biotechnology, Inc. (Catalog No. sc-28112)
